From the Human Domainome abundance scans (Beltran et al. 2025)

B1: Double-stranded RNA-binding protein Staufen homolog 1, residues 183 to 249; numbered along this chain, O95793 (parent)
chain: KSEISQVFEIALKRNLPVNFEVARESGPPHMKNFVTKVSVGEFVGEGEGKSKKISKKNAAIAVLEEL

Variants of: B1
Assay: abundance fitness (aPCA) (normalised: wild type 0, dead -1); higher = more abundant; growth selection in yeast, the domain comes from the species named
Conditions: Homo sapiens

Abundance fitness of substitutions, site by site:
S55: T -0.815, V -0.865, W -1, Y -1.07
K56: A -0.457, C -0.524, D -0.661, E -0.504, F -0.476, G -0.599, H -0.743, I -0.127, L -0.36, M -0.35, N -0.405, P -0.997, Q -0.291, R -0.042, V -0.32, W -0.825, Y -0.254
K57: F -0.837, L -0.163, S -0.43, T 0.17, V -0.218
N58: A -0.171, C -0.451, E -0.238, F -0.434, G -0.655, H -0.284, I -0.614, K -0.149, L -0.195, M -0.055, P -0.763, Q -0.126, R -0.105, S -0.341, T -0.604, V -0.565, W -0.868, Y -0.4
A59: C -0.663, D -0.718, E -0.798, F -0.911, G -0.61, H -1.04, I -1.03, K -0.717, L -0.806, M -0.753, N -0.705, P -1.08, Q -0.785, R -0.843, S -0.608, T -0.869, V -1.03, W -0.937, Y -1.16
A60: C -0.067, D -0.649, E -0.575, F -0.068, G -0.685, H -0.803, I -0.452, K -0.714, L -0.414, M -0.363, N -0.739, P -0.701, Q -0.741, R -0.882, T -0.466, V -0.489, W -1.02, Y -0.431
I61: A 0.002, C -0.126, D -0.53, E -0.245, F -0.39, G -0.184, H -0.218, K -0.047, L -0.061, M -0.095, N -0.181, P -0.556, Q -0.14, R 0.002, S -0.045, T -0.292, V -0.104, W -0.624, Y -0.478
A62: C -0.223, D -0.185, E -0.353, F -0.787, G -0.302, H -0.242, I -0.384, K 0.023, L -0.68, M -0.226, N 0.035, P -0.56, Q -0.086, R -0.121, S -0.112, T -0.381, V -0.403, Y -0.788
V63: A -0.246, C -0.233, D -0.497, F -0.829, G -0.482, H -0.858, L -0.143, M -0.239, N -0.521, P -0.577, Q -0.597, R -0.73, S -0.693, T -0.615, W -0.818, Y -0.906
L64: A -0.473, C -0.209, D -0.492, E -0.433, F -1.15, G -0.44, I -0.584, K -0.472, M -0.218, N -0.423, P -0.454, Q -0.448, R -0.517, S -0.475, V -0.5, W -0.67, Y -0.713
E65: A -0.038, C -0.348, D -0.081, F -0.737, G -0.079, H -0.051, I -0.573, K 0.118, L -0.417, M -0.336, P -0.386, Q -0.016, R 0.093, S 0.003, T -0.082, V -0.584
